One protein from PMC9304679, “HDX-guided EPR spectroscopy to interrogate membrane protein dynamics” (STAR Protocols, 2022) can be followed below.

The data set concerns the molecule itself. Description: SEC. For orientation: Size exclusion chromatography separates by hydrodynamic size, large species first.

B1: M tuberculosis MscL ion channel, wild type (natural protein)
chain: MLKGFKEFLARGNIVDLAVAVVIGTAFTALVTKFTDSIITPLINRIGVNAQSDVGILRIGIGGGQTIDLNVLLSAAINFFLIAFAVYFLVVLPYNTLRKKGEVEQPGDTQVVLLTEIRDLLAQTNGDSPGRHGGRGTPSPTDGPRASTESQ
notes: also called TbMscL; WT TbMscL
By stoichiometry N is commonly meant the number of molecules, sites or subunits per partner or assembly. Take B1: the “stoichiometry N” value came out at 5.
